Measured values taken from the supplement of paper PMC11246515.
± gives the standard deviation of the averaged measurements.

Test: total protein half-life in vivo (active degradation + dilution); higher = more stable protein
[1] = E. coli NCM3722 delta-clpP delta-lon delta-hslV, growth: N-lim chemostat, doubling time 6 h
[2] = E. coli NCM3722 delta-clpP, growth: N-lim chemostat, doubling time 6 h
[3] = E. coli NCM3722 delta-hslV, growth: N-lim chemostat, doubling time 6 h
[4] = E. coli NCM3722 delta-lon, growth: N-lim chemostat, doubling time 6 h
[5] = E. coli NCM3722 delta-smpB, growth: N-lim chemostat, doubling time 6 h
[6] = wild type E. coli NCM3722, growth: C-lim chemostat, doubling time 3 h
[7] = wild type E. coli NCM3722, growth: N-lim chemostat, doubling time 6 h
[8] = wild type E. coli NCM3722, growth: N-lim chemostat, doubling time 12 h
[9] = wild type E. coli NCM3722, growth: P-lim chemostat, doubling time 6 h
[10] = wild type E. coli NCM3722, growth: P-lim chemostat, doubling time 12 h
[11] = wild type E. coli NCM3722, growth: C-lim chemostat, doubling time 6 h
[12] = wild type E. coli NCM3722, growth: C-lim chemostat, doubling time 12 h

Row | Sequence | total protein half-life in vivo [1] [h] | total protein half-life in vivo [2] [h] | total protein half-life in vivo [3] [h] | total protein half-life in vivo [4] [h] | total protein half-life in vivo [5] [h] | total protein half-life in vivo [6] [h] | total protein half-life in vivo [7] [h] | total protein half-life in vivo [8] [h] | total protein half-life in vivo [9] [h] | total protein half-life in vivo [10] [h] | total protein half-life in vivo [11] [h] | total protein half-life in vivo [12] [h]
1 | MKLHHRMLRHFIAASVIVLTSSFLIFELVASDRAMSAYLRYIVQKADSSFLYDKYQNQSIAAHVMRALAAEQSEVSPEQRRAICEAFESANNTHGLNLTAHKYPGLRGTLQTASTDCDTIVEAAALLPAFDQAVEGNRHQDDYGSGLGMAEEKFHYYLDLNDRYVYFYEPVNVEYFAMNNWSFLQSGSIGIDRKDIEKVFTGRTVLSSIYQDQRTKQNVMSLLTPVYVAGQLKGIVLLDINKNNLRNIFYTHDRPLLWRFLNVTLTDTDSGRDIIINQSEDNLFQYVSYVHDLPGGIRVSLSIDILYFITSSWKSVLFWILTALILLNMVRMHFRLYQNVSRENISDAMTGLYNRKILTPELEQRLQKLVQSGSSVMFIAIDMDKLKQINDTLGHQEGDLAITLLAQAIKQSIRKSDYAIRLGGDEFCIILVDSTPQIAAQLPERIEKRLQHIAPQKEIGFSSGIYAMKENDTLHDAYKASDERLYVNKQNKNSRS | 6.76 ± 0.25 | 6.49 ± 0.48 | 6.32 ± 0.99 | 6.49 ± 0.3 | 5.84 ± 0.39 | 3.35 ± 0.26 | 6.57 ± 0.21 | 14.1 ± 0.84 | 6.25 ± 0.64 | 12.9 ± 0.26 | – | –
2 | MDAKQRIARRVAQELRDGDIVNLGIGLPTMVANYLPEGIHITLQSENGFLGLGPVTTAHPDLVNAGGQPCGVLPGAAMFDSAMSFALIRGGHIDACVLGGLQVDEEANLANWVVPGKMVPGMGGAMDLVTGSRKVIIAMEHCAKDGSAKILRRCTMPLTAQHAVHMLVTELAVFRFIDGKMWLTEIADGCDLATVRAKTEARFEVAADLNTQRGDL | – | – | – | 0.206 | – | – | 1.83 | – | – | – | – | –
3 | MCGIVGAIAQRDVAEILLEGLRRLEYRGYDSAGLAVVDAEGHMTRLRRLGKVQMLAQAAEEHPLHGGTGIAHTRWATHGEPSEVNAHPHVSEHIVVVHNGIIENHEPLREELKARGYTFVSETDTEVIAHLVNWELKQGGTLREAVLRAIPQLRGAYGTVIMDSRHPDTLLAARSGSPLVIGLGMGENFIASDQLALLPVTRRFIFLEEGDIAEITRRSVNIFDKTGAEVKRQDIESNLQYDAGDKGIYRHYMQKEIYEQPNAIKNTLTGRISHGQVDLSELGPNADELLSKVEHIQILACGTSYNSGMVSRYWFESLAGIPCDVEIASEFRYRKSAVRRNSLMITLSQSGETADTLAGLRLSKELGYLGSLAICNVPGSSLVRESDLALMTNAGTEIGVASTKAFTTQLTVLLMLVAKLSRLKGLDASIEHDIVHGLQALPSRIEQMLSQDKRIEALAEDFSDKHHALFLGRGDQYPIALEGALKLKEISYIHAEAYAAGELKHGPLALIDADMPVIVVAPNNELLEKLKSNIEEVRARGGQLYVFADQDAGFVSSDNMHIIEMPHVEEVIAPIFYTVPLQLLAYHVALIKGTDVDQPRNLAKSVTVE | 5.12 ± 0.77 | 5.07 ± 1.3 | 4 ± 0.11 | 4.01 ± 0.15 | 3.98 ± 0.33 | 3.14 ± 0.23 | 4.14 ± 0.067 | 6.35 ± 0.37 | 5.8 ± 0.14 | 11.3 ± 0.96 | 5.37 ± 0.3 | 9.64 ± 0.98
4 | MVSRYVPDMGDLIWVDFDPTKGSEQAGHRPAVVLSPFMYNNKTGMCLCVPCTTQSKGYPFEVVLSGQERDGVALADQVKSIAWRARGATKKGTVAPEELQLIKAKINVLIG [P0AE70] | 6.61 ± 0.43 | – | 6.264 ± 0.046 | 6.6 ± 0.43 | 5.59 ± 0.098 | 3.16 ± 0.28 | 4.02 ± 0.46 | 9.87 ± 1.7 | 6.19 | 11 ± 0.37 | 5.35 ± 0.39 | –
5 | MAQVINTNSLSLITQNNINKNQSALSSSIERLSSGLRINSAKDDAAGQAIANRFTSNIKGLTQAARNANDGISVAQTTEGALSEINNNLQRVRELTVQATTGTNSESDLSSIQDEIKSRLDEIDRVSGQTQFNGVNVLAKNGSMKIQVGANDNQTITIDLKQIDAKTLGLDGFSVKNNDTVTTSAPVTAFGATTTNNIKLTGITLSTEAATDTGGTNPASIEGVYTDNGNDYYAKITGGDNDGKYYAVTVANDGTVTMATGATANATVTDANTTKATTITSGGTPVQIDNTAGSATANLGAVSLVKLQDSKGNDTDTYALKDTNGNLYAADVNETTGAVSVKTITYTDSSGAASSPTAVKLGGDDGKTEVVDIDGKTYDSADLNGGNLQTGLTAGGEALTAVANGKTTDPLKALDDAIASVDKFRSSLGAVQNRLDSAVTNLNNTTTNLSEAQSRIQDADYATEVSNMSKAQIIQQAGNSVLAKANQVPQQVLSLLQG | > 8 | – | > 8 | > 8 | > 8 | 0.717 ± 0.2 | 6.3 ± 0.12 | – | > 8 | > 16 | 0.724 ± 0.37 | 0.956 ± 0.59
6 | MTRPIQASLDLQALKQNLSIVRQAATHARVWSVVKANAYGHGIERIWSAIGATDGFALLNLEEAITLRERGWKGPILMLEGFFHAQDLEIYDQHRLTTCVHSNWQLKALQNARLKAPLDIYLKVNSGMNRLGFQPDRVLTVWQQLRAMANVGEMTLMSHFAEAEHPDGISGAMARIEQAAEGLECRRSLSNSAATLWHPEAHFDWVRPGIILYGASPSGQWRDIANTGLRPVMTLSSEIIGVQTLKAGERVGYGGRYTARDEQRIGIVAAGYADGYPRHAPTGTPVLVDGVRTMTVGTVSMDMLAVDLTPCPQAGIGTPVELWGKEIKIDDVAAAAGTVGYELMCALALRVPVVTV | 4.49 ± 0.56 | 3.6 ± 0.35 | 3.14 ± 0.1 | 3.89 ± 0.29 | 3.37 ± 0.47 | 3.16 ± 0.19 | 3.6 ± 0.21 | 5.1 ± 0.33 | 6.81 ± 1.4 | 11.9 ± 1.2 | 6.2 ± 0.25 | 9.9 ± 0.72
7 | MSLVTDLPAIFDQFSEARQTGFLTVMDLKERGIPLVGTYCTFMPQEIPMAAGAVVVSLCSTSDETIEEAEKDLPRNLCPLIKSSYGFGKTDKCPYFYFSDLVVGETTCDGKKKMYEYMAEFKPVHVMQLPNSVKDDASRALWKAEMLRLQKTVEERFGHEISEDALRDAIALKNRERRALANFYHLGQLNPPALSGSDILKVVYGATFRFDKEALINELDAMTARVRQQWEEGQRLDPRPRILITGCPIGGAAEKVVRAIEENGGWVVGYENCTGAKATEQCVAETGDVYDALADKYLAIGCSCVSPNDQRLKMLSQMVEEYQVDGVVDVILQACHTYAVESLAIKRHVRQQHNIPYIAIETDYSTSDVGQLSTRVAAFIEML | – | – | – | – | – | 1.59 ± 0.089 | – | – | – | – | 1.98 | 2.51 ± 0.083
8 | MGAELVKWVKSHKIDAHIITFVAKMPYIDSIKLLEAGAKGCVWKTSHPAKLNRAIDSISNGYTYFDSVHMDCEKISSRYSSDNQLTNRESEILQLIADGKTNKEIANFLQLSRKTVETHRLNIMKKLDVHSGIELIKTALRMGVCTI | 5.42 | – | – | 5.01 | 5.08 ± 0.25 | 2.7 | 5.22 ± 0.2 | – | – | – | 4.55 ± 1.5 | 8.41 ± 2.9
